# Measurements as given in patent publication US20170275344A1, “POLYPEPTIDES AND USES THEREOF AS A DRUG FOR TREATMENT OF AUTOIMMUNE DISORDERS” (Compugen Ltd., priority 2014, published 2017).
# Assays:
# [1] = test system: healthy human skin transplanted onto beige-SCID mice; test: Humanized psoriasis model: healthy human skin xenotransplants on beige-SCID mice injected with psoriatic patients' PBMCs; format: in vivo, mouse; conditions: IHC, vs PBS treated group
# Text: In this model, psoriasis is induced in xenotransplants of healthy human skin transplanted onto beige severe combined immunodeficiency (SCID) mice followed by intradermal (i.d.) injection of IL-2 enriched Peripheral Blood Mononuclear Cells (PBMCs) isolated from blood of psoriasis patients (Nickoloff, 1995; Wrone-Smith, 1996 Gilhar et al., 2002, 2006, 2011). The activity of these compounds was compared to that of Enbrel, a TNF inhibitor which is an approved biological drug for treatment of psoriasis. As a control for model robustness, we used dexamethasone, a steroid with suppressive effects on inflammatory cytokines and chemokines such as TNF-alpha and interferon-gamma which cause severe psoriasis. All treatments were administered intradermally, except for dexamethasone which was given topically.
# Study Protocol: A) Healthy human skin pieces with a width of 0.4 mm and surface area of 1.5×1.5 cm were provided from residual skin of routine plastic surgery procedures from the Plastic Surgery Department of the Rambam Medical Center, Israel. In addition, 20 mL blood samples were taken from psoriatic patients. B) Seventy (70) beige-severe combined immunodeficient mice (SCID) (weight˜20-25 g) were included in this study. Normal healthy human donor skin was transplanted onto the beige-SCID mice as previously described (Nickoloff et al., 1995; Wrone-Smith, 1996; Gilhar et al., 2002, 2006, 2011; Kalish et al., 2009) and the mice were divided into 7 groups. C) Peripheral Blood Mononuclear Cells (PBMCs) isolated from psoriatic patients' blood were cultured in the presence of IL-2 [Prospec, 100 U/mL of RPMI 1640 media, 10% human AB serum (Sigma, St. Louis, Mo.), 1% glutamine, 1% antibiotics (media components; Biological Industries, Kibbutz Beit Haemeck, Israel)] for 14 days, as previously described (Gilhar et al, 2002). D) Four weeks following engraftment, each mouse was injected intra-dermally (i.d.) into the grafted skin lesion, with 1×10^7 activated allogeneic enriched PBMCs from psoriatic patients (FIG. 20). Cells from different psoriasis patients were equally distributed between treatment groups so that each patient is represented in each treatment group. E) On the day of PBMCs injection into the skin grafts, mice were divided randomly into treatment groups (n=9-10 mice per group) and administration of all drugs started (FIG. 20). All tested compounds including the vehicle were given intradermally (intralesional), three times a week, except for dexamethasone which was given topically for 14 consecutive days (Table 3).
# F) Twenty eight days after starting the injections and treatment, skin was harvested (FIG. 20). Grafts were analyzed for the following psoriatic parameters by histology: epidermal thickening (acanthosis), suprapapillary epidermal thinning (papillomatosis), hyperkeratosis, parakeratosis, orthokeratosis, agranulosis-hypogranulosis, appearance of neutrophils in the upper spinous layer or in the corneal cell layer—Munro microabscess, regular elongation of rete ridges, angiogenesis, edema and dilated tortuous blood vessels in the dermal papilla and mononuclear cell infiltrate in the papillary dermis. Epidermal thickness was measured as detailed below, and HLA-DR, ICAM-1, Ki-67 and immune infiltrates (anti-CD3 stain) were evaluated by immunohistochemistry (IHC).
# The entire skin graft was excised and placed in 10% formal saline overnight. Then, the specimens were place in 70% ethanol and were embedded according to the standard H&E protocol. Histological assessment of the skin grafts was performed by light microscopy and evaluated by two blinded observers [the second observer evaluated random slides (about 25% of all slides) to compare the data obtained by the first observer. […] Epidermal thickness was determined with an ocular micrometer at a minimum of 50 points along the epidermis selected to represent points of maximal and minimal thickness.
# Representative grafts were allocated for IHC analysis. […]
# Male DBA/1O1aHsd mice = test: CIA model, early stage treatment from day 18; format: in vivo, mouse
# Text: The aim of this study was to estimate the effect of C1ORF32-P8-V1-ECD-mFc (SEQ ID NO:42) on disease development in a type II Collagen induced arthritis (CIA) mouse model upon administration at early stage of disease; i.e., when specific and predictive markers for RA development are present in the serum, but before onset of clinical symptoms.
# In the CIA model, arthritis is induced by immunization with type II collagen in CFA on day 1 which is followed by boosting with type II collagen in CFA on day 21. Antibodies against both CII and cyclic citrullinated peptide (CCPs) appear early after immunization, before joint swelling is observed.
# To evaluate the effect of early stage treatment with C1ORF32-P8-V1-ECD-mFc (SEQ ID NO:42) on disease development treatment started on day 18 and was given IP injection, Q2D to mice from day 18 until day 32.
# Male DBA/1O1aHsd mice weighing 16-25 grams (mean 22 g) on day 18 of the study were obtained from Harlan, Inc., Indianapolis, Ind. Mice (10/group) were anaesthetized with Isoflurane, shaved at the base of the tail, and injected intradermally with 150 μl of Freund's Complete Adjuvant (Sigma) containing bovine type II collagen (Elastin Products, Owensville, Mo.) (2 mg/me at the base of the tail on day 0 and again on day 21. On study day 18, mice were randomized by body weight into treatment groups. Treatment was initiated after enrollment and continued every other day (Q2D at 48 h intervals) through study day 33. On study days 23-34, onset of arthritis occurred. Mice were terminated on study day 34. Clinical scores were given for each of the paws (right front, left front, right rear, left rear) on arthritis days 18-34.
# Mice were weighed on study days 18, 20, 22, 24, 26, 28, 30, 32 and 34 (prior to necropsy). […]
molecule,measurement,setting,value
"C1ORF32 ECD-Fc (SEQ ID NO:42): fusion protein of human C1ORF32 ECD fused to mouse immunoglobulin Fc (human-mouse fusion protein) (protein, Fusion protein human C1ORF32-ECD fused to mouse IgG2a Fc) LQVTVPDKKKVAMLFQPTVLRCHFSTSSHQPAVVQWKFKSYCQDRMGESLGMSSTRAQSLSKRNLEWDPYLDCLDSRRTVRVVASKQGSTVTLGDFYRGREITIVHDADLQIGKLMWGDSGLYYCIITTPDDLEGKNEDSVELLVLGRTGLLADLLPSFAVEIMGSENLYFQGSGEPRGPTIKPCPPCKCPAPNLLGGPSVFIFPPKIKDVLMISLSPIVTCVVVDVSEDDPDVQISWFVNNVEVHTAQTQTHREDYNSTLRVVSALPIQHQDWMSGKEFKCKVNNKDLPAPIERTISKPKGSVRAPQVYVLPPPEEEMTKKQVTLTCMVTDFMPEDIYVEWTNNGKTELNYKNTEPVLDSDGSYFMYSKLRVEKKNWVERNSYSCSVVHEGLHNHHTTKSFSRTPGK",infiltration of T cells (CD3 positive cells),[1],significant reduction of CD3 positive cells
same,effect of the lower dose,Male DBA/1O1aHsd mice; 3.3 mg/kg IP Q2D,No effect
same,clinical arthritis score,"Male DBA/1O1aHsd mice; 10 mg/kg IP Q2D from day 18, vs PBS or mIgG2a, did not reach significance",inhibition of clinical arthritis score
same,body weight loss (percent change from baseline),"Male DBA/1O1aHsd mice; 10 mg/kg, from study day 30 until termination, data not shown",significantly inhibited toward normal
